Results: the supplement of paper PMC10724198
± gives the standard deviation of the averaged measurements.

test system: Saccharomyces cerevisiae; test: protein stability index of tFT-peptide fusion (C-terminal peptide) (PSI (0-1 scale)); higher = more stable (slower turnover); conditions: genetic background: wild type; temperature: 37 C
Method: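 MPS profiling in S. cerevisiae of the tFT-X12 degron library: putative degron peptides plus stable controls, 12 aa, fused to the C-terminus of a sfGFP-mCherry timer. Cells are FACS-sorted into 8 mCherry/sfGFP bins and deep-sequenced. PSI runs from 0 (unstable) to 1 (stable). Backgrounds are wild type, das1Δ and doa10Δ at 30 °C, and wild type, das1Δ, cdc34-1 and cdc53-1 at 37 °C; 2-3 technical replicates each.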
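Further: PSI is a weighted mean of sequencing reads over stability bins, variants kept only with over 10 reads, mCherry proximal and sfGFP distal, peptide attached via GGGS linker.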

First: KYCPCIPLLIAL
Second: LAVRSGFPFGLF
The protein stability index of the first is higher: 0.443 ± 0.012 for the first, 0.224 ± 0.014 for the second.

Going from LCLLHCSICISF to LCLLIHFWISHL, the protein stability index falls from 0.4142 ± 0.0008 to 0.2932 ± 0.0011.

Going from LCVFFRCFFVGG to LCWRLCRFWWVG, the protein stability index falls from 0.5722 ± 0.0043 to 0.424 ± 0.013.

First: LDHGRVVWVVVS
Second: LDRLTTWTLIVR
The protein stability index of the first is lower: 0.284 ± 0.008 for the first, 0.482 ± 0.0083 for the second.

Compared with LERLHSVLLLTS, LFFLPPCYWFLL is higher in protein stability index: 0.324 ± 0.011 for the first, 0.571 ± 0.013 for the second.

First: LFFWWVAVVFRV
Second: LFLVFIGLFFLT
The protein stability index of the first is lower: 0.189 ± 0.014 for the first, 0.441 ± 0.01 for the second.

Going from LFRFSRLFLFVL to LFRRMWVEIFYV, the protein stability index falls from 0.201 ± 0.017 to 0.155 ± 0.021.

Going from LGKSTLYMALNN to LGVLVVCFNATY, the protein stability index falls from 0.571 ± 0.11 to 0.376 ± 0.017.

First: LHLTFRLAVLYY
Second: LIIVFGFTSILR
The protein stability index of the first is lower: 0.371 ± 0.039 for the first, 0.509 ± 0.048 for the second.

Compared with LIPFPGFFILLT, LISRGNRALFCI is higher in protein stability index: 0.315 ± 0.054 for the first, 0.482 ± 0.016 for the second.

First: LLAREILVIVAV
Second: LLCLAVVLWFVV
The protein stability index of the first is lower: 0.271 ± 0.0034 for the first, 0.3362 ± 0.0005 for the second.

First: LLCSPPPLTVPA
Second: LLFVLWLSFFVL
The protein stability index of the first is higher: 0.44 ± 0.0091 for the first, 0.382 ± 0.04 for the second.

Compared with LLGDFAVLTCVF, LLGGFAAFWRIL is lower in protein stability index: 0.465 ± 0.022 for the first, 0.297 ± 0.026 for the second.

LLLFLHILRYVF and LLLFLHSTLTCR are within error of each other in protein stability index: 0.529 ± 0.088 for the first, 0.558 ± 0.022 for the second.

Going from LLLLASLFFRLA to LLLPVFLVFSVS, the protein stability index rises from 0.37 ± 0.028 to 0.47 ± 0.058.

First: LLLSLLVLRFFL
Second: LLMPLLLHSLVW
The protein stability index of the first is higher: 0.501 ± 0.019 for the first, 0.434 ± 0.024 for the second.

LLPSNFLLLVGV and LMIVSVRLLFFL are within error of each other in protein stability index: 0.2857 ± 0.0024 for the first, 0.282 ± 0.014 for the second.

Compared with LPAICFWCVLVG, LPNLPPTSPERH is higher in protein stability index: 0.21 ± 0.013 for the first, 0.703 ± 0.0097 for the second.

Compared with LPPSPPCQSPAL, LPPYPPPVPILI is lower in protein stability index: 0.685 ± 0.013 for the first, 0.489 ± 0.0053 for the second.

First: LPSLRPPPCIRA
Second: LQYSKALAVICG
The protein stability index of the first is higher: 0.513 ± 0.014 for the first, 0.317 ± 0.023 for the second.

Compared with LRALGPRIYRIS, LRLFIFLLFSVF is lower in protein stability index: 0.417 ± 0.016 for the first, 0.249 ± 0.013 for the second.

First: LSFFFWFIFSLC
Second: LSLFCFFLLVLF
The protein stability index of the first is higher: 0.443 ± 0.027 for the first, 0.288 ± 0.0084 for the second.

Going from LSPLPSPLILVV to LSRELRFVGFYH, the protein stability index rises from 0.182 ± 0.022 to 0.517 ± 0.043.

Compared with LSRLWVVGWVVA, LSSIIRFLIFCL is higher in protein stability index: 0.399 ± 0.013 for the first, 0.469 ± 0.0062 for the second.

First: LTIYPLTYCFVS
Second: LVDSRIVWLFVS
The protein stability index of the first is higher: 0.568 ± 0.025 for the first, 0.0698 ± 0.021 for the second.

Going from LVFFAYLIRGAL to LVGLESCGERAG, the protein stability index rises from 0.0558 ± 0.0015 to 0.72 ± 0.024.

First: LVHLVLYVAVFC
Second: LVLLRLSSLTIF
The protein stability index of the first is lower: 0.398 ± 0.0049 for the first, 0.549 ± 0.034 for the second.

First: LVVFLRFFLRVL
Second: LVVGCFLTFCFG
The protein stability index of the first is lower: 0.158 ± 0.016 for the first, 0.402 ± 0.0085 for the second.

First: LWFGAWWLGAVG
Second: LWGVGRQRNIAS
The protein stability index of the first is lower: 0.32 ± 0.013 for the first, 0.582 ± 0.021 for the second.

First: LWRRSLLLLRCC
Second: LWYVQILNIVLN
The protein stability index of the first is lower: 0.0618 ± 0.0063 for the first, 0.409 ± 0.013 for the second.

First: LYLEAYFCIFHF
Second: MALAVRVVVCGA
The protein stability index of the first is higher: 0.401 ± 0.015 for the first, 0.107 ± 0.021 for the second.

Going from MAMMQTILIIIH to MDLVSEYKIKVN, the protein stability index rises from 0.173 ± 0.0081 to 0.473 ± 0.0088.

Compared with MFRSEVSWKLCC, MSCILFCCLVPF is higher in protein stability index: 0.409 ± 0.025 for the first, 0.549 ± 0.017 for the second.

First: NASWAFLCYFCV
Second: NMRYRATIEACA
The protein stability index of the first is higher: 0.557 ± 0.04 for the first, 0.38 ± 0.023 for the second.

First: NTYKICVVSVTS
Second: NYVFRIIIVLDA
The protein stability index of the first is higher: 0.578 ± 0.018 for the first, 0.349 ± 0.031 for the second.

PALYLSLWFLFP and PAVRRLTGLMLM are within error of each other in protein stability index: 0.5761 ± 0.0011 for the first, 0.566 ± 0.022 for the second.

Compared with PCNVLWYSLFLF, PFAGRLWVTSSF is higher in protein stability index: 0.34 ± 0.0062 for the first, 0.7558 ± 0.0072 for the second.

Compared with PFYQSGGLVVVV, PGHICVPVLGTA is lower in protein stability index: 0.583 ± 0.029 for the first, 0.517 ± 0.036 for the second.

Going from PGSIGVVIAVRS to PGVWVVILRWWV, the protein stability index falls from 0.517 ± 0.0066 to 0.182 ± 0.011.

test system: Saccharomyces cerevisiae; test: as above; conditions: genetic background: wild type; temperature: 30 C

Compared with KYCPCIPLLIAL, LAVRSGFPFGLF is lower in protein stability index: 0.429 ± 0.0047 for the first, 0.249 ± 0.0026 for the second.

Going from LCLLHCSICISF to LCLLIHFWISHL, the protein stability index falls from 0.388 ± 0.014 to 0.244 ± 0.023.

First: LCVFFRCFFVGG
Second: LCWRLCRFWWVG
The protein stability index of the first is higher: 0.514 ± 0.028 for the first, 0.363 ± 0.016 for the second.

Compared with LDHGRVVWVVVS, LDRLTTWTLIVR is higher in protein stability index: 0.278 ± 0.022 for the first, 0.471 ± 0.031 for the second.

First: LERLHSVLLLTS
Second: LFFLPPCYWFLL
The protein stability index of the first is lower: 0.284 ± 0.021 for the first, 0.489 ± 0.019 for the second.

First: LFFWWVAVVFRV
Second: LFLVFIGLFFLT
The protein stability index of the first is lower: 0.23 ± 0.038 for the first, 0.413 ± 0.012 for the second.

LFRFSRLFLFVL and LFRRMWVEIFYV are within error of each other in protein stability index: 0.207 ± 0.061 for the first, 0.253 ± 0.046 for the second.

LGKSTLYMALNN and LGVLVVCFNATY are within error of each other in protein stability index: 0.402 ± 0.047 for the first, 0.354 ± 0.013 for the second.

LHLTFRLAVLYY and LIIVFGFTSILR are within error of each other in protein stability index: 0.338 ± 0.032 for the first, 0.419 ± 0.093 for the second.

First: LIPFPGFFILLT
Second: LISRGNRALFCI
The protein stability index of the first is higher: 0.436 ± 0.0094 for the first, 0.314 ± 0.02 for the second.

LLAREILVIVAV and LLCLAVVLWFVV are the same in protein stability index: 0.307 ± 0.0051 for the first, 0.307 ± 0.03 for the second.

First: LLCSPPPLTVPA
Second: LLFVLWLSFFVL
The protein stability index of the first is higher: 0.454 ± 0.025 for the first, 0.346 ± 0.031 for the second.

First: LLGDFAVLTCVF
Second: LLGGFAAFWRIL
The protein stability index of the first is higher: 0.453 ± 0.0086 for the first, 0.226 ± 0.06 for the second.

Going from LLLFLHILRYVF to LLLFLHSTLTCR, the protein stability index rises from 0.414 ± 0.026 to 0.49 ± 0.011.

LLLLASLFFRLA and LLLPVFLVFSVS are within error of each other in protein stability index: 0.3 ± 0.016 for the first, 0.326 ± 0.034 for the second.

LLLSLLVLRFFL and LLMPLLLHSLVW are within error of each other in protein stability index: 0.423 ± 0.027 for the first, 0.409 ± 0.005 for the second.

LLPSNFLLLVGV and LMIVSVRLLFFL are within error of each other in protein stability index: 0.289 ± 0.032 for the first, 0.2661 ± 0.002 for the second.

First: LPAICFWCVLVG
Second: LPNLPPTSPERH
The protein stability index of the first is lower: 0.201 ± 0.0059 for the first, 0.663 ± 0.33 for the second.

Going from LPPSPPCQSPAL to LPPYPPPVPILI, the protein stability index falls from 0.743 ± 0.018 to 0.493 ± 0.017.

Going from LPSLRPPPCIRA to LQYSKALAVICG, the protein stability index falls from 0.48 ± 0.018 to 0.374 ± 0.05.

Compared with LRALGPRIYRIS, LRLFIFLLFSVF is lower in protein stability index: 0.317 ± 0.035 for the first, 0.198 ± 0.013 for the second.

Going from LSFFFWFIFSLC to LSLFCFFLLVLF, the protein stability index falls from 0.376 ± 0.019 to 0.2279 ± 0.0013.

LSPLPSPLILVV and LSRELRFVGFYH are within error of each other in protein stability index: 0.284 ± 0.014 for the first, 0.318 ± 0.066 for the second.

First: LSRLWVVGWVVA
Second: LSSIIRFLIFCL
The protein stability index of the first is lower: 0.295 ± 0.036 for the first, 0.404 ± 0.013 for the second.

Compared with LTIYPLTYCFVS, LVDSRIVWLFVS is lower in protein stability index: 0.502 ± 0.035 for the first, 0.0955 ± 0.039 for the second.

Compared with LVFFAYLIRGAL, LVGLESCGERAG is higher in protein stability index: 0.108 ± 0.036 for the first, 0.69 ± 0.035 for the second.

Going from LVHLVLYVAVFC to LVLLRLSSLTIF, the protein stability index rises from 0.283 ± 0.074 to 0.404 ± 0.0068.

Going from LVVFLRFFLRVL to LVVGCFLTFCFG, the protein stability index rises from 0.199 ± 0.0035 to 0.315 ± 0.028.

Compared with LWFGAWWLGAVG, LWGVGRQRNIAS is lower in protein stability index: 0.457 ± 0.0053 for the first, 0.41 ± 0.013 for the second.

Compared with LWRRSLLLLRCC, LWYVQILNIVLN is higher in protein stability index: 0.0946 ± 0.013 for the first, 0.328 ± 0.033 for the second.

Going from LYLEAYFCIFHF to MALAVRVVVCGA, the protein stability index falls from 0.36 ± 0.024 to 0.184 ± 0.043.

First: MAMMQTILIIIH
Second: MDLVSEYKIKVN
The protein stability index of the first is lower: 0.171 ± 0.0028 for the first, 0.31 ± 0.004 for the second.

Compared with MFRSEVSWKLCC, MSCILFCCLVPF is higher in protein stability index: 0.285 ± 0.054 for the first, 0.4748 ± 0.0035 for the second.

Compared with NASWAFLCYFCV, NMRYRATIEACA is lower in protein stability index: 0.481 ± 0.028 for the first, 0.356 ± 0.0097 for the second.

First: NTYKICVVSVTS
Second: NYVFRIIIVLDA
The protein stability index of the first is lower: 0.413 ± 0.018 for the first, 0.444 ± 0.0058 for the second.

Going from PALYLSLWFLFP to PAVRRLTGLMLM, the protein stability index falls from 0.512 ± 0.045 to 0.413 ± 0.011.

First: PCNVLWYSLFLF
Second: PFAGRLWVTSSF
The protein stability index of the first is lower: 0.271 ± 0.0091 for the first, 0.752 ± 0.035 for the second.

First: PFYQSGGLVVVV
Second: PGHICVPVLGTA
The protein stability index of the first is lower: 0.21 ± 0.039 for the first, 0.447 ± 0.027 for the second.

Compared with PGSIGVVIAVRS, PGVWVVILRWWV is lower in protein stability index: 0.464 ± 0.0078 for the first, 0.152 ± 0.01 for the second.
